These results are taken from EP4361176A1.

For test [1], the target named is human FcγRIIb extracellular domain with C-terminal His-tag (human) (UniProt P31994). Nature of the test: SPR; binding amount / that of 04H1637-G1m/04L1610-lam1. For orientation: In SPR one partner is held on a chip, and binding of the other changes the refractive index at the surface.
Test [2] shares this target. Nature of the test: SPR (Biacore T200), FcγRIIb 1000 nM, amount bound per unit captured antibody.

Sequence of human FcγRIIb extracellular domain with C-terminal His-tag (human) (P31994 43-217): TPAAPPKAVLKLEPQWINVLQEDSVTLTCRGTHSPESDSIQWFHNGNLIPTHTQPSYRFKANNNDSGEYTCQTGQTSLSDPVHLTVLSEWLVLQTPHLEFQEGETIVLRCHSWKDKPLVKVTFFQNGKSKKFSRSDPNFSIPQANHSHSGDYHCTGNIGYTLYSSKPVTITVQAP

B1: 04H1654-KT462/04L1610-lam1//04H1656-HT445/04L1610-lam1 (antibody, human IgG1, lambda)
heavy 1: QVQLVESGGGVVQPGGSLRLSCAASGFTFSSKTMNWVRQAPGKGLEWVSSISTQSHYIYYARSVRGRFTISRDNAKNSLYLQMNSLRAEDTAVYYCARYGKREDMLWVFDYWGQGTLVTVSSASTKGPSVFPLAPSSKSTSGGTAALGCLVKDYFPEPVTVSWNSGALTSGVHTFPAVLQSSGLYSLSSVVTVPSSSLGTQTYICNVNHKPSNTKVDKRVEPKSCDKTHTCPPCPAPEFQWGPMVFLFPPKPKDVLMISRTPEVTCVVVDVSDEEPEVKFNWYVDGVEVHNAKTKPREEQYNATYRVVSVLPVLHQDWLNGKEYKCKVSNDALPAPIEKTISKAKGQPREPQVYTLPPSRKEMTKNQVSLTCLVKGFYPSDIAVEWESNGQPENNYKTTPPVLDSDGSFFLYSKLTVDKSRWQQGNVFSCSVMHEALHNHYTQKSLSLSP
heavy 2: QVQLVESGGGVVQPGGSLRLSCAASGFTFSSKTMNWVRQAPGKGLEWVSSISTQSHYIYYAESVRGRFTISRDNAKNSLYLQMNSLRAEDTAVYYCARYGAREDMLWVFDYWGQGTLVTVSSASTKGPSVFPLAPSSKSTSGGTAALGCLVKDYFPEPVTVSWNSGALTSGVHTFPAVLQSSGLYSLSSVVTVPSSSLGTQTYICNVNHKPSNTKVDKRVEPKSCDKTHTCPPCPAPELLAGPSVFLFPPKPKDVLMISRTPEVTCVVVDVSHEEPEVKFNWYVDGVEVHNAKTKPREEQYNATYRVVSVLPVLHQDWLNGKEYKCKVSNDALPKPDEETISKAKGQPREPQVYTLPPSREEMTKNQVSLTCLVKGFYPSDIAVEWESNGQPENNYKTTPPVLDSDGSFFLYSKLTVDKSRWQQGNVFSCSVMHEALHNHYTQESLSLSP
light: QSALTQPPSASGSPGQSVTISCEGPSTGVGDYNWVHWYQQHPGKAPKLMIYFTSKKPSGVPDRFSGSKSGNTASLTVSGLQAEDEADYYCQTYAAPLGPMFGGGTKLTVLGQPKAAPSVTLFPPSSEELQANKATLVCLISDFYPGAVTVAWKADSSPVKAGVETTTPSKQSNNKYAASSYLSLTPEQWKSHRSYSCQVTHEGSTVEKTVAPTECS
B1 gave a Relative binding amount in test [1] of 3.1. Moreover, the Binding amount in test [2] was 0.025.

B2: 04H1654-KT481/04L1610-lam1//04H1656-HT498/04L1610-lam1 (antibody)
heavy 1: QVQLVESGGGVVQPGGSLRLSCAASGFTFSSKTMNWVRQAPGKGLEWVSSISTQSHYIYYARSVRGRFTISRDNAKNSLYLQMNSLRAEDTAVYYCARYGKREDMLWVFDYWGQGTLVTVSSASTKGPSVFPLAPSSKSTSGGTAALGCLVKDYFPEPVTVSWNSGALTSGVHTFPAVLQSSGLYSLSSVVTVPSSSLGTQTYICNVNHKPSNTKVDKRVEPKSCDKTHTCPPCPAPEFQWGPMVFLFPPKPKDVLMISRTPEVTCVVVDVSDEEPEVKFNWYVDGVEVHNAKTKPREEQYNATYRVVSVLPVLHQDWLNGKEYKCKVSNDALPAPEEKTISKAKGQPREPQVYTLPPSRKEMTKNQVSLTCLVKGFYPSDIAVEWESNGQPENNYKTTPPVLDSDGSFFLYSKLTVDKSRWQQGNVFSCSVMHEALHAHTTRKELSLSP
heavy 2: QVQLVESGGGVVQPGGSLRLSCAASGFTFSSKTMNWVRQAPGKGLEWVSSISTQSHYIYYAESVRGRFTISRDNAKNSLYLQMNSLRAEDTAVYYCARYGAREDMLWVFDYWGQGTLVTVSSASTKGPSVFPLAPSSKSTSGGTAALGCLVKDYFPEPVTVSWNSGALTSGVHTFPAVLQSSGLYSLSSVVTVPSSSLGTQTYICNVNHKPSNTKVDKRVEPKSCDKTHTCPPCPAPELLAGPSVFLFPPKPKDVLMISRTPEVTCVVVDVSHEEPEVKFNWYVDGVEVHNAKTKPREEQYNATYRVVSVLPVLHQDWLNGKEYKCKVSNDALPAPEEETISKAKGQPREPQVYTLPPSREEMTKNQVSLTCLVKGFYPSDIAVEWESNGQPENNYKTTPPVLDSDGSFFLYSKLTVDKSRWQQGNVFSCSVMHEALHAHTTREELSLSP
light: QSALTQPPSASGSPGQSVTISCEGPSTGVGDYNWVHWYQQHPGKAPKLMIYFTSKKPSGVPDRFSGSKSGNTASLTVSGLQAEDEADYYCQTYAAPLGPMFGGGTKLTVLGQPKAAPSVTLFPPSSEELQANKATLVCLISDFYPGAVTVAWKADSSPVKAGVETTTPSKQSNNKYAASSYLSLTPEQWKSHRSYSCQVTHEGSTVEKTVAPTECS
With B2, the Relative binding amount in test [1] turned out to be 2.7. The same molecule yielded a Binding amount in test [2] of 0.022.

B3: 04H1654-KT473/04L1610-lam1//04H1656-HT482/04L1610-lam1 (antibody)
heavy 1: QVQLVESGGGVVQPGGSLRLSCAASGFTFSSKTMNWVRQAPGKGLEWVSSISTQSHYIYYARSVRGRFTISRDNAKNSLYLQMNSLRAEDTAVYYCARYGKREDMLWVFDYWGQGTLVTVSSASTKGPSVFPLAPSSKSTSGGTAALGCLVKDYFPEPVTVSWNSGALTSGVHTFPAVLQSSGLYSLSSVVTVPSSSLGTQTYICNVNHKPSNTKVDKRVEPKSCDKTHTCPPCPAPEFQWGPMVFLFPPKPKDVLMISRTPEVTCVVVDVSDEEPEVKFNWYVDGVEVHNAKTKPREEQYNATYRVVSVLPVLHQDWLNGKEYKCKVSNDALPAPIEKTISKAKGQPREPQVYTLPPSRKEMTKNQVSLTCLVKGFYPSDIAVEWESNGQPENNYKTTPPVLDSDGSFFLYSKLTVDKSRWQQGNVFSCSVMHEALHAHTTRKELSLSP
heavy 2: QVQLVESGGGVVQPGGSLRLSCAASGFTFSSKTMNWVRQAPGKGLEWVSSISTQSHYIYYAESVRGRFTISRDNAKNSLYLQMNSLRAEDTAVYYCARYGAREDMLWVFDYWGQGTLVTVSSASTKGPSVFPLAPSSKSTSGGTAALGCLVKDYFPEPVTVSWNSGALTSGVHTFPAVLQSSGLYSLSSVVTVPSSSLGTQTYICNVNHKPSNTKVDKRVEPKSCDKTHTCPPCPAPELLAGPSVFLFPPKPKDVLMISRTPEVTCVVVDVSHEEPEVKFNWYVDGVEVHNAKTKPREEQYNATYRVVSVLPVLHQDWLNGKEYKCKVSNDALPKPDEETISKAKGQPREPQVYTLPPSREEMTKNQVSLTCLVKGFYPSDIAVEWESNGQPENNYKTTPPVLDSDGSFFLYSKLTVDKSRWQQGNVFSCSVMHEALHAHTTREELSLSP
light: QSALTQPPSASGSPGQSVTISCEGPSTGVGDYNWVHWYQQHPGKAPKLMIYFTSKKPSGVPDRFSGSKSGNTASLTVSGLQAEDEADYYCQTYAAPLGPMFGGGTKLTVLGQPKAAPSVTLFPPSSEELQANKATLVCLISDFYPGAVTVAWKADSSPVKAGVETTTPSKQSNNKYAASSYLSLTPEQWKSHRSYSCQVTHEGSTVEKTVAPTECS
On to B3, for which the Relative binding amount in test [1] was determined as 3.2. In addition, the Binding amount in test [2] is 0.026.

B4: 04H1654-KT461/04L1610-lam1//04H1656-HT443/04L1610-lam1 (antibody, human IgG1, lambda)
heavy 1: QVQLVESGGGVVQPGGSLRLSCAASGFTFSSKTMNWVRQAPGKGLEWVSSISTQSHYIYYARSVRGRFTISRDNAKNSLYLQMNSLRAEDTAVYYCARYGKREDMLWVFDYWGQGTLVTVSSASTKGPSVFPLAPSSKSTSGGTAALGCLVKDYFPEPVTVSWNSGALTSGVHTFPAVLQSSGLYSLSSVVTVPSSSLGTQTYICNVNHKPSNTKVDKRVEPKSCDKTHTCPPCPAPEFQWGPMVFLFPPKPKDVLMISRTPEVTCVVVDVSDEEPEVKFNWYVDGVEVHNAKTKPREEQYNATYRVVSVLPVLHQDWLNGKEYKCKVSNDALPAPEEKTISKAKGQPREPQVYTLPPSRKEMTKNQVSLTCLVKGFYPSDIAVEWESNGQPENNYKTTPPVLDSDGSFFLYSKLTVDKSRWQQGNVFSCSVMHEALHNHYTQKSLSLSP
heavy 2: QVQLVESGGGVVQPGGSLRLSCAASGFTFSSKTMNWVRQAPGKGLEWVSSISTQSHYIYYAESVRGRFTISRDNAKNSLYLQMNSLRAEDTAVYYCARYGAREDMLWVFDYWGQGTLVTVSSASTKGPSVFPLAPSSKSTSGGTAALGCLVKDYFPEPVTVSWNSGALTSGVHTFPAVLQSSGLYSLSSVVTVPSSSLGTQTYICNVNHKPSNTKVDKRVEPKSCDKTHTCPPCPAPELLAGPSVFLFPPKPKDVLMISRTPEVTCVVVDVSHEEPEVKFNWYVDGVEVHNAKTKPREEQYNATYRVVSVLPVLHQDWLNGKEYKCKVSNDALPAPEEETISKAKGQPREPQVYTLPPSREEMTKNQVSLTCLVKGFYPSDIAVEWESNGQPENNYKTTPPVLDSDGSFFLYSKLTVDKSRWQQGNVFSCSVMHEALHNHYTQESLSLSP
light: QSALTQPPSASGSPGQSVTISCEGPSTGVGDYNWVHWYQQHPGKAPKLMIYFTSKKPSGVPDRFSGSKSGNTASLTVSGLQAEDEADYYCQTYAAPLGPMFGGGTKLTVLGQPKAAPSVTLFPPSSEELQANKATLVCLISDFYPGAVTVAWKADSSPVKAGVETTTPSKQSNNKYAASSYLSLTPEQWKSHRSYSCQVTHEGSTVEKTVAPTECS
B4: the Relative binding amount in test [1] amounted to 3.1. For the same molecule, the Binding amount in test [2] is 0.025.

B5: 04H1654-KT462/04L1612-lam1//04H1656-HT445/04L1612-lam1 (antibody, human IgG1, lambda)
heavy 1: QVQLVESGGGVVQPGGSLRLSCAASGFTFSSKTMNWVRQAPGKGLEWVSSISTQSHYIYYARSVRGRFTISRDNAKNSLYLQMNSLRAEDTAVYYCARYGKREDMLWVFDYWGQGTLVTVSSASTKGPSVFPLAPSSKSTSGGTAALGCLVKDYFPEPVTVSWNSGALTSGVHTFPAVLQSSGLYSLSSVVTVPSSSLGTQTYICNVNHKPSNTKVDKRVEPKSCDKTHTCPPCPAPEFQWGPMVFLFPPKPKDVLMISRTPEVTCVVVDVSDEEPEVKFNWYVDGVEVHNAKTKPREEQYNATYRVVSVLPVLHQDWLNGKEYKCKVSNDALPAPIEKTISKAKGQPREPQVYTLPPSRKEMTKNQVSLTCLVKGFYPSDIAVEWESNGQPENNYKTTPPVLDSDGSFFLYSKLTVDKSRWQQGNVFSCSVMHEALHNHYTQKSLSLSP
heavy 2: QVQLVESGGGVVQPGGSLRLSCAASGFTFSSKTMNWVRQAPGKGLEWVSSISTQSHYIYYAESVRGRFTISRDNAKNSLYLQMNSLRAEDTAVYYCARYGAREDMLWVFDYWGQGTLVTVSSASTKGPSVFPLAPSSKSTSGGTAALGCLVKDYFPEPVTVSWNSGALTSGVHTFPAVLQSSGLYSLSSVVTVPSSSLGTQTYICNVNHKPSNTKVDKRVEPKSCDKTHTCPPCPAPELLAGPSVFLFPPKPKDVLMISRTPEVTCVVVDVSHEEPEVKFNWYVDGVEVHNAKTKPREEQYNATYRVVSVLPVLHQDWLNGKEYKCKVSNDALPKPDEETISKAKGQPREPQVYTLPPSREEMTKNQVSLTCLVKGFYPSDIAVEWESNGQPENNYKTTPPVLDSDGSFFLYSKLTVDKSRWQQGNVFSCSVMHEALHNHYTQESLSLSP
light: QSALTQPPSASGSPGQSVTISCEGPSTGVGDYTYVHWYQQHPGKAPKLMIYFTSKKPSGVPDRFSGSKSGNTASLTVSGLQAEDEADYYCQTYAAPLGPMFGGGTKLTVLGQPKAAPSVTLFPPSSEELQANKATLVCLISDFYPGAVTVAWKADSSPVKAGVETTTPSKQSNNKYAASSYLSLTPEQWKSHRSYSCQVTHEGSTVEKTVAPTECS
Molecule B5 registered a Relative binding amount in test [1] of 3.4. For the same molecule, in test [2], the Binding amount was 0.028.
